For this data set, the target named is Klf4 ZnF1-3 DNA-binding domain (mouse, UniProt Q60793 396-483). Nature of the data set: X-ray crystallography (1.85 A); 3 Zn2+; FP: 20 mM Tris-HCl pH 7.5, 150 mM NaCl, 5% (v/v) glycerol, 0.5 mM TCEP, ~22 C; probe 10 nM (WT) or 1 nM (E446A). As to conditions: protein: recombinant; tags: GST tag removed; N-terminal GPLGS left; blunt.
Klf4 ZnF1-3 DNA-binding domain, sequence (Q60793 396-483): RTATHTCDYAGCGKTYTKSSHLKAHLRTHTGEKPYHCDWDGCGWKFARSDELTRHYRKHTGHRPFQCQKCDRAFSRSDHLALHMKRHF

B1: crystal 10-mer M/M (dsDNA)
DNA 1: GAGGCGTGGC
DNA 2: GCCACGCCTC
modifications: 5mC at position 5 of strand 1 and position 5 of strand 2
Regarding B1, the binding result was “binds”.

Values taken from PMC4005678, “Structural basis for Klf4 recognition of methylated DNA”.
